From paper PMC10024175, “Structuring supramolecular hyaluronan hydrogels via peptide self-assembly for modulating the cell microenvironment” (Materials Today Bio, 2023) come the findings set out here.

Data set [1] deals with the molecule itself. Kind of data set: transmission electron microscopy; 1 mM peptide in deionized water, pH 11 (NH4OH), negative staining with uranyl acetate, dried on the grid.
Data set [2] deals with the molecule itself. Put plainly: FTIR spectroscopy; 10 mM peptide in D2O, pH 7, NaCl 0, 50, 100, 200, 300 and 400 mM; beta-sheet formation read as self-assembly.
Data set [3] concerns the molecule itself. Put plainly: zeta potential; 1 mM peptide in ultrapure water, neutral pH; self-association of the peptide.

B1: (KI)3K peptide (peptide)
peptide: Ac-KIKIKIK-NH2
notes: rationally designed cationic amphipathic peptide; Synthesised on a rink amide MBHA resin, so the C-terminus is probably an amide (surmised); source: synthetic peptide (Fmoc solid-phase synthesis, purified by preparative RP-HPLC)
Turning to B1, the binding result in data set [1] is “binds”.

B2: (KI)6K peptide (peptide)
peptide: Ac-KIKIKIKIKIKIK-NH2
notes: as for B1
B2: in data set [2], the binding result was “binds”.

B3: (KI)5K peptide (peptide)
peptide: Ac-KIKIKIKIKIK-NH2
notes: as for B1
Take B3: the binding result in data set [3] is “binds”.

B4: (KI)2K peptide (peptide)
peptide: Ac-KIKIK-NH2
notes: as for B1
Consider B4, for which the binding result in data set [1] was “binds”.

B5: (KI)4K peptide (peptide)
peptide: Ac-KIKIKIKIK-NH2
notes: as for B1
As to B5, in data set [1], the binding result is on record as “binds”.
